The results in this text go back to publication PMC12550933, “Novel Humanized Anti-HER3 Antibodies: Structural Characterization and Therapeutic Activity” (Antibodies, 2025).

As usually defined, the Kd is the free concentration of one partner at which half of the binding sites on the other are occupied at equilibrium, for simple one-to-one binding. Broadly, the koff is the first-order rate constant of dissociation. Higher therefore signals a short-lived complex. What is called kon is the rate constant with which the complex forms. Read a low kon as slower complex formation.

Holding throughout (settings): both partners purified
In assay [1] the target is T1, HER3 peptide #54 (15-mer of the overlapping peptide library) (Homo sapiens, UniProt P21860).
T1 construct: 15-mer of human HER3 from a library of 15-mers with 11 residues overlap; Limits worked out from the printed core and the 11-residue overlap; source: synthetic peptide (JPT Peptide Technologies)
T1 chain: QCNGHCFGPNPNQCC
Briefly: peptide or protein array; ELISA on plates coated with 1 µg/mL of 15-mer HER3 peptides with 11 residues overlap; antibody at 1 µg/mL overnight at 4 °C. (In general: In an ELISA, binding on a coated surface is turned into a signal by an enzyme label.)

For assay [2], the target named is T2, HER3 peptide #55 (15-mer of the overlapping peptide library) (Homo sapiens, UniProt P21860).
T2 construct: 15-mer of human HER3 from a library of 15-mers with 11 residues overlap; Limits worked out from the printed core and the 11-residue overlap; source: synthetic peptide (JPT Peptide Technologies)
T2 chain: HCFGPNPNQCCHDEC
The assay is described as above.

Assay [3] addresses T3, human HER3-Fc chimeric protein (Homo sapiens, UniProt P21860).
T3 construct: human HER3 (ErbB3) part of the bought Fc chimera; also called HER3 Fc chimera protein; Recombinant human HER3/HER3-Fc chimeric protein; source: bought: R&D Systems
Briefly: SPR; Biacore X100; HER3 Fc chimera coupled to a CM5 chip; antibodies as analytes, single-cycle kinetics, 25 °C; duplicate; KD = koff/kon. For orientation: In SPR one partner is held on a chip, and binding of the other changes the refractive index at the surface.

The target of assay [4] is T4, Rhesus HER3/HER3 (HisTag) (Macaca mulatta, UniProt H9ERZ8).
T4 construct: rhesus HER3 (ErbB3), bought recombinant protein; probably the extracellular domain (surmise); also called recombinant rhesus HER3; source: bought: Sinobiological
The assay is described as follows: ELISA; plates coated with 1 µg/mL recombinant human, mouse, rat or rhesus HER3 (His tag); purified antibodies, dose-response.

The next assay has as its target T5, Rat HER3/HER3 (HisTag) (rat, UniProt Q62799).
T5 construct: rat HER3 (ErbB3), bought recombinant protein; probably the extracellular domain (surmise); also called recombinant rat HER3; source: bought: Sinobiological
The description is as above.

The target of the next assay is T6, Mouse HER3/HER3 (HisTag) (mouse, UniProt Q61526).
T6 construct: mouse HER3 (ErbB3), bought recombinant protein; probably the extracellular domain (surmise); also called recombinant mouse HER3; source: bought: Sinobiological
T6 sequence (Q61526 20-641): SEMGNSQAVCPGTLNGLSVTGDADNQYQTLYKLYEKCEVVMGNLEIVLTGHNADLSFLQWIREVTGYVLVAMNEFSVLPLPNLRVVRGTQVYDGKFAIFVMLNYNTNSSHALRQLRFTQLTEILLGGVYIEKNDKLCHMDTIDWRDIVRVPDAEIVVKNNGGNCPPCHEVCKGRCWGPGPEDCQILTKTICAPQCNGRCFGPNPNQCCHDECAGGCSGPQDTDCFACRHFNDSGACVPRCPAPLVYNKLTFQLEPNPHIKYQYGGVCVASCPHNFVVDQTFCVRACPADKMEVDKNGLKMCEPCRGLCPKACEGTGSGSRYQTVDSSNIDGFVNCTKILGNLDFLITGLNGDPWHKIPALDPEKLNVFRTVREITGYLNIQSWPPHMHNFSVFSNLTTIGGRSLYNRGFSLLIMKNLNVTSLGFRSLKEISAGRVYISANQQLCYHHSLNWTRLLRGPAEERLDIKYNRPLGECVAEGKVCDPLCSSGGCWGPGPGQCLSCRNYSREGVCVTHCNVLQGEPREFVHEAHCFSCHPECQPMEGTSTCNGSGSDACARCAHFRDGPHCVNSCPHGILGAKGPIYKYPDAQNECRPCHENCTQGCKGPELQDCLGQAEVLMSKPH
The assay is described as above.

Assay [5] concerns the target T7, Recombinant human ErbB2 chimeric protein (Homo sapiens (Human)., UniProt P04626).
T7 construct: human ErbB2 part of the bought chimeric protein; also called HER2; source: bought: R&D Systems
Briefly: ELISA; plates coated with 1 µg/mL recombinant EGFR, ErbB2, HER3 or ErbB4 chimeric protein; purified antibodies at 10 µg/mL (Figure 3A) or in serial dilutions on human HER3 (Figure 3B).

Assay [6] concerns the target T8, Recombinant human EGFR-Fc chimeric protein (Homo sapiens (Human)., UniProt P00533).
T8 construct: human EGFR part of the bought Fc chimera; also called ErbB1; HER1; source: bought: R&D Systems
Described as above.

Assay [7] deals with T9, Recombinant human ErbB4 chimeric protein (Homo sapiens (Human)., UniProt Q15303).
T9 construct: human ErbB4 part of the bought chimeric protein; also called HER4; source: bought: R&D Systems
T9 sequence (Q15303 26-651, change not shown): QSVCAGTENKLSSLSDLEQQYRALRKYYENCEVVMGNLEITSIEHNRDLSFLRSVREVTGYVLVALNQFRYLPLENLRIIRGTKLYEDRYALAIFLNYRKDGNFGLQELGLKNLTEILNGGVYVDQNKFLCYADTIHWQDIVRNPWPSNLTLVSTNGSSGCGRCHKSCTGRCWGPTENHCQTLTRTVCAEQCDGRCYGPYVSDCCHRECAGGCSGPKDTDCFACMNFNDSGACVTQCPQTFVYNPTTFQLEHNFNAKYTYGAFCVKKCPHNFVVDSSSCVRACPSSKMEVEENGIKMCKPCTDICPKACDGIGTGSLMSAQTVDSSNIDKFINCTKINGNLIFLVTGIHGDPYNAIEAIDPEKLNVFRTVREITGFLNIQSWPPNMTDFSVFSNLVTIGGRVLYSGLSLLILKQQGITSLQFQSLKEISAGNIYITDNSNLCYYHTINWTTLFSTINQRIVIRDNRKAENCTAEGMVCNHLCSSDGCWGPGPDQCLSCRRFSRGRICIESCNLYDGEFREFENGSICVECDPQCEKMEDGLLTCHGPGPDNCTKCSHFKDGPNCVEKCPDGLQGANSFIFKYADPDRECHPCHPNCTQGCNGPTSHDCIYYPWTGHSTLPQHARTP
The description is as above.

T3 sequence (P21860 20-643, change not shown): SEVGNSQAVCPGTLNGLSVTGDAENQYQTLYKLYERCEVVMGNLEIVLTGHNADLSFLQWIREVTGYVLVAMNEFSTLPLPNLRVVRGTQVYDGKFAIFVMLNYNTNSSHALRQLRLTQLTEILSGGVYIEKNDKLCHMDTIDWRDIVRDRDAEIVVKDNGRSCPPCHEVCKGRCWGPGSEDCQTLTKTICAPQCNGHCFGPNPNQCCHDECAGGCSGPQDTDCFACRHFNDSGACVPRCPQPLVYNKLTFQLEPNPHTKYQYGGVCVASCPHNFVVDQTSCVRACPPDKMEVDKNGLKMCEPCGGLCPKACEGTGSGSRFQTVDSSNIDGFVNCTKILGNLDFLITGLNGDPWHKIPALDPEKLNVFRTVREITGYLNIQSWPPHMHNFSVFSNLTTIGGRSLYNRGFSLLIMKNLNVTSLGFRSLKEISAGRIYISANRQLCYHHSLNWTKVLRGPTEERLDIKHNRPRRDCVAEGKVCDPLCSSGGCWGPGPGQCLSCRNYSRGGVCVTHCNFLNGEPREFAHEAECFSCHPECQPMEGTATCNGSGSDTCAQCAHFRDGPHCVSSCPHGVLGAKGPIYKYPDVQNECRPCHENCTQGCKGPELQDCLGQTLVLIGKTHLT
T5 sequence (Q62799 20-643): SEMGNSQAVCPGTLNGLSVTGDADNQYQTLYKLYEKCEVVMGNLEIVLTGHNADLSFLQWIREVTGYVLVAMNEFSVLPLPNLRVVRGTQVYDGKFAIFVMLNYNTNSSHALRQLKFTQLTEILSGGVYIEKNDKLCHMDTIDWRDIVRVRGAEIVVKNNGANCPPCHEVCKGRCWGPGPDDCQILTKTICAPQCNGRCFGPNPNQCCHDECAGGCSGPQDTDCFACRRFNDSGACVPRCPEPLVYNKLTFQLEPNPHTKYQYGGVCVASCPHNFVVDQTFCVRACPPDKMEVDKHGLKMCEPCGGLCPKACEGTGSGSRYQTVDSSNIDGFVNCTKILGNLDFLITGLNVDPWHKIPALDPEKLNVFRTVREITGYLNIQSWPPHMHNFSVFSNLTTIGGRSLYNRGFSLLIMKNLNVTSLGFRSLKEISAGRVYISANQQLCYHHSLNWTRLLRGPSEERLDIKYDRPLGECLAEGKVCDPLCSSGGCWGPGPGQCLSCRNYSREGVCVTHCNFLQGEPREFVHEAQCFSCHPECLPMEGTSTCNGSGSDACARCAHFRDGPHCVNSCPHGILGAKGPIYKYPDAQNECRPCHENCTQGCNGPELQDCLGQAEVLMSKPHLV

B1: TK-hu A3-H1L1 humanized anti-HER3 monoclonal antibody (human IgG1, kappa) (antibody, V domains shown)
VH: QVTLRESGPALVKPTQTLTLTCTFSGFSLSTYGMGVGWIRQPPGKALEWLANIWWNDDKYYSSSLKTRLTISKDTSKNQVVLTMTNMDPVDTATYYCVQIANPYWYFDVWGQGTTVTVSS
VL: DIVMTQTPLSLSVTPGQPASISCKSSQSLLHSYGNTYLEWYLQKPGQSPQLLIYRVSNRFSGVPDRFSGSGSGTDFTLKISRVEAEDVGVYYCFQGSHVPFTFGQGTKLEIK
notes: humanized heavy chain variable region, variant H1 (germline CDR grafting of murine TK-A3); they are in PDB 9I1Q chain I (also J, K, L), which also holds CH1 of the Fab; human IgG1 constant region present in the expression vector; humanized light chain variant L1 in frame with the human kappa constant region; the whole light chain is in PDB 9I1Q chain F (also E, G, H); IgG1 kappa; also called …
For the molecule B1, the binding result is “binds” in assay [1]; “binds” in [2]; “binds” in assay [4]; “binds” with Rat HER3/HER3 (HisTag); “binds” with Mouse HER3/HER3 (HisTag); “no binding (tested: 10 µg/mL)” in assay [5]. Besides, the binding result in assay [6] and in assay [7] was “no binding (tested: 10 µg/mL)” each time. The Kd in [3] came to 1.81 nM. Besides, in assay [3], the koff was 0.000113 s⁻¹. The kon in assay [3] was determined as 62400 M⁻¹ s⁻¹.
